From patent US20240052037A1 (published 2024)

Assays:
[1] = biological target: recombinant human CD47-Fc (ACROBiosystems, catalog number CD7-H52A5) (human, UniProt Q08722 19-139); experiment: competition ELISA; blocking CD47/SIRPα
[2] = biological target: human CD47 (ACROBiosystems, catalog number CD7-H5227) (human, UniProt Q08722 19-139); experiment: ELISA
[3] = biological target: T1, human PD-L1-Fc (ACROBiosystems, catalog number PD1-H5258) (human, UniProt Q9NZQ7 19-238); experiment: competition ELISA; blocking PD-L1/PD-1
[4] = biological target: T1, human PD-L1-Fc (ACROBiosystems, catalog …); experiment: competition ELISA; blocking PD-L1/CD80
[5] = biological target: recombinant human PD-L1 (Sino Biological Inc., catalog number 10084-H08H) (human, UniProt Q9NZQ7 19-239); experiment: ELISA
Chain of recombinant human PD-L1 (Sino Biological Inc., catalog number 10084-H08H) (Q9NZQ7 19-239): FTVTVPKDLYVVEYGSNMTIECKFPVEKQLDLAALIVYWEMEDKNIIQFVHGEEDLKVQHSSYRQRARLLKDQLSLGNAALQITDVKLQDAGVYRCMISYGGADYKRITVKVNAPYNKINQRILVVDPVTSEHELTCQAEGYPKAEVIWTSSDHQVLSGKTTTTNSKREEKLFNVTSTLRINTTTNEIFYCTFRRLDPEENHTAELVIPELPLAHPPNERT

Chain of human CD47 (ACROBiosystems, catalog number CD7-H5227) (Q08722 19-139): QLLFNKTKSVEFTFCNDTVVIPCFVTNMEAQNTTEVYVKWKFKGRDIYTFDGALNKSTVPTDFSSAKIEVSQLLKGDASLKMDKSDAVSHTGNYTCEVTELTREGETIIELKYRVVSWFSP
Chain of recombinant human CD47-Fc (ACROBiosystems, catalog number CD7-H52A5) (Q08722 19-139): as above
T1 sequence (Q9NZQ7 19-238): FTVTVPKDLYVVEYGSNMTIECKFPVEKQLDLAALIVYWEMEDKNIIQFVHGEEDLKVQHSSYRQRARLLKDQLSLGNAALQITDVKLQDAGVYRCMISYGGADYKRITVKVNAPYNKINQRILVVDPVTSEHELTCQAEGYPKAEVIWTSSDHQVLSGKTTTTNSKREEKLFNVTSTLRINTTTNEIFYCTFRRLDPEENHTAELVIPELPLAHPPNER

B1: CD47 monoclonal antibody (heavy and light chain variable region sequences of the humanized sequences z11 of the antibody CD47-18-5 and the constant region … (antibody, V domains shown)
VH: QVQLVQSGAEVKKPGSSVKVSCKASGFNIEDIYMHWVRQAPGQGLEWMGRIDPANDNTKYGPKLQGRVTITADTSTNTAYMELSSLRSEDTAVYYCVRRIPTDIMDYWGQGTTVTVSS
VL: DIQMTQSPSSLSASVGDRVTITCKASQNVRTSIAWYQQKPGKAPKTLIYLASNRHTGVPSRFSGSGSGTEFTLTISNLQPEDFATYYCLQHWNYPFTFGQGTKLEIK
EC50 [1]: 2.26 nM | EC50 [2]: 0.094 nM

B2: anti-PD-L1/anti-CD47 heterodimeric antibody BH3016 (bispecific antibody)
heavy 1: EVQLVQSGAEVKKPGSSVKVSCKASGFNIEDTYIHWVRQAPGQGLEWMGRIDPANANTKYDPKFQGRVTITADTSTNTAYMELSSLRSEDTAVYYCGRGLGAWFAYWGQGTLVTVSS
light 1: DIQMTQSPSSLSASVGDRVTITCKASQDVHTAVAWIQQKPGKSPKLLIYSASNRYTGVPSRFSGSGSGTDFTFTISSLQPEDIATYYCQQHYITPLTFGQGTKLEIKRTVAAPSVFIFPPSDEQLKSGTASVVCLLNNFYPREAKVQWKVDNALQSGNSQESVTEQDSKDSTYSLSSTLTLSKADYEKHKVYACEVTHQGLSSPVTKSFNRGEC
heavy 2: QVQLVQSGAEVKKPGSSVKVSCKASGFNIEDIYMHWVRQAPGQGLEWMGRIDPANDNTKYGPKLQGRVTITADESTSTAYMELSSLRSEDTAVYYCVRRIPTDIMDYWGQGTTVTVSSASTKGPSVFPLAPSSKSTSGGTAALGCLVKDYFPEPVTVSWNSGALTSGVHTFPAVLQSSGLYSLSSVVTVPSSSLGTQTYICNVNHKPSNTKVDKKVEPKSCDKTHTCPPCPAPELLGGPSVFLFPPKPKDTLMISRTPEVTCVVVDVSHEDPEVKFNWYVDGVEVHNAKTKPREEQYASTYRVVSVLTVLHQDWLNGKEYKCKVSNKALPAPIEKTISKAKGQPREPQVYTEPPSRDELTKNQVSLTCLVKGFYPSDIAVEWESNGQPENNYKTTPPVLDSDGSFFLLSVLTVDKSRWQQGNVFSCSVMHEALHNHYTQKSLSLSPGK
light 2: DIQMTQSPSSLSASVGDRVTITCKASQNVRTSIAWYQQKPGKAPKTLIYLASNRHTGVPSRFSGSGSGTEFTLTISNLQPEDFATYYCLQHWNYPFTFGQGTKLEIKRTVAAPSVFIFPPSDEQLKSGTASVVCLLNNFYPREAKVQWKVDNALQSGNSQESVTEQDSKDSTYSLSSTLTLSKADYEKHKVYACEVTHQGLSSPVTKSFNRGEC
EC50 [3]: 1.5 nM | EC50 [1]: 6.12 nM | EC50 [4]: 1.29 nM | EC50 [2]: 0.491 nM | EC50 [5]: 0.251 nM

B3: anti-PD-L1/anti-CD47 heterodimeric antibody BH3012h (bispecific antibody)
heavy 1: EVQLVQSGAEVKKPGSSVKVSCKASGFNIEDTYIHWVRQAPGQGLEWMGRIDPANANTKYDPKFQGRVTITADTSTNTAYMELSSLRSEDTAVYYCGRGLGAWFAYWGQGTLVTVSS
light 1: DIQMTQSPSSLSASVGDRVTITCKASQDVHTAVAWIQQKPGKSPKLLIYSASNRYTGVPSRFSGSGSGTDFTFTISSLQPEDIATYYCQQHYITPLTFGQGTKLEIKRTVAAPSVFIFPPSDEQLKSGTASVVCLLNNFYPREAKVQWKVDNALQSGNSQESVTEQDSKDSTYSLSSTLTLSKADYEKHKVYACEVTHQGLSSPVTKSFNRGEC
heavy 2: QVQLVQSGAEVKKPGSSVKVSCKASGFNIEDIYMHWVRQAPGQGLEWMGRIDPANDNTKYGPKLQGRVTITADTSTNTAYMELSSLRSEDTAVYYCVRRIPTDIMDYWGQGTTVTVSSASTKGPSVFPLAPSSKSTSGGTAALGCLVKDYFPEPVTVSWNSGALTSGVHTFPAVLQSSGLYSLSSVVTVPSSSLGTQTYICNVNHKPSNTKVDKKVEPKSCDKTHTCPPCPAPELLGGPSVFLFPPKPKDTLMISRTPEVTCVVVDVSHEDPEVKFNWYVDGVEVHNAKTKPREEQYASTYRVVSVLTVLHQDWLNGKEYKCKVSNKALPAPIEKTISKAKGQPREPQVYTEPPSRDELTKNQVSLTCLVKGFYPSDIAVEWESNGQPENNYKTTPPVLDSDGSFFLLSVLTVDKSRWQQGNVFSCSVMHEALHNHYTQKSLSLSPGK
light 2: DIQMTQSPSSLSASVGDRVTITCKASQNVRTSIAWYQQKPGKAPKTLIYLASNRHTGVPSRFSGSGSGTEFTLTISNLQPEDFATYYCLQHWNYPFTFGQGTKLEIKRTVAAPSVFIFPPSDEQLKSGTASVVCLLNNFYPREAKVQWKVDNALQSGNSQESVTEQDSKDSTYSLSSTLTLSKADYEKHKVYACEVTHQGLSSPVTKSFNRGEC
EC50 [3]: 1.54 nM | EC50 [1]: 4.73 nM | EC50 [4]: 1.78 nM | EC50 [2]: 0.134 nM | EC50 [5]: 0.261 nM

B4: anti-PD-L1/anti-CD47 heterodimeric antibody BH3015 (bispecific antibody)
heavy 1: EVQLVQSGAEVKKPGSSVKVSCKASGFNIEDTYIHWVRQAPGQGLEWMGRIDPANANTKYDPKFQGRVTITADTSTNTAYMELSSLRSEDTAVYYCGRGLGAWFAYWGQGTLVTVSS
light 1: DIQMTQSPSSLSASVGDRVTITCKASQDVHTAVAWIQQKPGKSPKLLIYSASNRYTGVPSRFSGSGSGTDFTFTISSLQPEDIATYYCQQHYITPLTFGQGTKLEIKRTVAAPSVFIFPPSDEQLKSGTASVVCLLNNFYPREAKVQWKVDNALQSGNSQESVTEQDSKDSTYSLSSTLTLSKADYEKHKVYACEVTHQGLSSPVTKSFNRGEC
heavy 2: QVQLVQSGAEVKKPGSSVKVSCKASGFNIEDIYMHWVRQAPGQGLEWMGRIDPANDNTKYGPKLQGRVTITADTSTSTAYMELSSLRSEDTAVYYCVRRIPTDIMDYWGQGTTVTVSSASTKGPSVFPLAPSSKSTSGGTAALGCLVKDYFPEPVTVSWNSGALTSGVHTFPAVLQSSGLYSLSSVVTVPSSSLGTQTYICNVNHKPSNTKVDKKVEPKSCDKTHTCPPCPAPELLGGPSVFLFPPKPKDTLMISRTPEVTCVVVDVSHEDPEVKFNWYVDGVEVHNAKTKPREEQYASTYRVVSVLTVLHQDWLNGKEYKCKVSNKALPAPIEKTISKAKGQPREPQVYTEPPSRDELTKNQVSLTCLVKGFYPSDIAVEWESNGQPENNYKTTPPVLDSDGSFFLLSVLTVDKSRWQQGNVFSCSVMHEALHNHYTQKSLSLSPGK
light 2: DIQMTQSPSSLSASVGDRVTITCKASQNVRTSIAWYQQKPGKAPKRLIYLASNRHTGVPSRFSGSGSGTEFTLTISNLQPEDFATYYCLQHWNYPFTFGQGTKLEIKRTVAAPSVFIFPPSDEQLKSGTASVVCLLNNFYPREAKVQWKVDNALQSGNSQESVTEQDSKDSTYSLSSTLTLSKADYEKHKVYACEVTHQGLSSPVTKSFNRGEC
EC50 [3]: 1.67 nM | EC50 [1]: 12.8 nM | EC50 [4]: 1.97 nM | EC50 [2]: 2.49 nM | EC50 [5]: 0.262 nM

B5: anti-PD-L1/anti-CD47 heterodimeric antibody BH3014 (bispecific antibody)
heavy 1: EVQLVQSGAEVKKPGSSVKVSCKASGFNIEDTYIHWVRQAPGQGLEWMGRIDPANANTKYDPKFQGRVTITADTSTNTAYMELSSLRSEDTAVYYCGRGLGAWFAYWGQGTLVTVSS
light 1: DIQMTQSPSSLSASVGDRVTITCKASQDVHTAVAWIQQKPGKSPKLLIYSASNRYTGVPSRFSGSGSGTDFTFTISSLQPEDIATYYCQQHYITPLTFGQGTKLEIKRTVAAPSVFIFPPSDEQLKSGTASVVCLLNNFYPREAKVQWKVDNALQSGNSQESVTEQDSKDSTYSLSSTLTLSKADYEKHKVYACEVTHQGLSSPVTKSFNRGEC
heavy 2: QVQLVQSGAEVKKPGSSVKVSCKASGFNIEDIYMHWVRQAPGQGLEWMGRIDPANDNTKYGPKLQGRVTITADESTNTAYMELSSLRSEDTAVYYCARRIPTDIMDYWGQGTTVTVSSASTKGPSVFPLAPSSKSTSGGTAALGCLVKDYFPEPVTVSWNSGALTSGVHTFPAVLQSSGLYSLSSVVTVPSSSLGTQTYICNVNHKPSNTKVDKKVEPKSCDKTHTCPPCPAPELLGGPSVFLFPPKPKDTLMISRTPEVTCVVVDVSHEDPEVKFNWYVDGVEVHNAKTKPREEQYASTYRVVSVLTVLHQDWLNGKEYKCKVSNKALPAPIEKTISKAKGQPREPQVYTEPPSRDELTKNQVSLTCLVKGFYPSDIAVEWESNGQPENNYKTTPPVLDSDGSFFLLSVLTVDKSRWQQGNVFSCSVMHEALHNHYTQKSLSLSPGK
light 2: DIQMTQSPSSLSASVGDRVTITCKASQNVRTSIAWYQQKPGKAPKRLIYLASNRHTGVPSRFSGSGSGTEFTLTISNLQPEDFATYYCLQHWNYPFTFGQGTKLEIKRTVAAPSVFIFPPSDEQLKSGTASVVCLLNNFYPREAKVQWKVDNALQSGNSQESVTEQDSKDSTYSLSSTLTLSKADYEKHKVYACEVTHQGLSSPVTKSFNRGEC
EC50 [3]: 1.63 nM | EC50 [1]: 802 nM | EC50 [4]: 1.5 nM | EC50 [2]: 68.4 nM | EC50 [5]: 0.234 nM
